Results: patent US20190284293A1 (Bristol-Myers Squibb, published 2019)
Several values for one entry are separate records, joined by “and”; a condition that tells them apart may be missing. Equal entries are not always repeated.

Tests used:
[1] = target: T1, human CD73 on cells (human, UniProt P21589 27-549); assay: cell-based or functional assay
T1 sequence: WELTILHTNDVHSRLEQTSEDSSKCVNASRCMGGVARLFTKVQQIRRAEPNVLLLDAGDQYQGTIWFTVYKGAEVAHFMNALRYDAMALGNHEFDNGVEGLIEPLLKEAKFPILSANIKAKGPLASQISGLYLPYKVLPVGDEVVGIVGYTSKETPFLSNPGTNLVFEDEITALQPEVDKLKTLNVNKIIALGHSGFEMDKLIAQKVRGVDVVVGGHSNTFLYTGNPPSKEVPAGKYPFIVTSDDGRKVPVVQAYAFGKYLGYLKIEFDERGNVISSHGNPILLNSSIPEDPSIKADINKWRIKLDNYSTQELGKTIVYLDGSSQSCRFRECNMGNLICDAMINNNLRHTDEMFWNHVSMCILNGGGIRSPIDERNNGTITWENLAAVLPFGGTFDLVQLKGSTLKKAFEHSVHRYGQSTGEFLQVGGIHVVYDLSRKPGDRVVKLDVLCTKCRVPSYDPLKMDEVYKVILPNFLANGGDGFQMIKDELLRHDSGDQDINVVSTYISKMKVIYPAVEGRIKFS

[2] = target: T1, human CD73 on cells; assay: cell-based or functional assay; remark: listed apart in the source
[3] = target: T2, rhCD73 bound to his-tag magnet beads (human, UniProt P21589 27-547, limits assumed); assay: cell-based or functional assay
T2 sequence: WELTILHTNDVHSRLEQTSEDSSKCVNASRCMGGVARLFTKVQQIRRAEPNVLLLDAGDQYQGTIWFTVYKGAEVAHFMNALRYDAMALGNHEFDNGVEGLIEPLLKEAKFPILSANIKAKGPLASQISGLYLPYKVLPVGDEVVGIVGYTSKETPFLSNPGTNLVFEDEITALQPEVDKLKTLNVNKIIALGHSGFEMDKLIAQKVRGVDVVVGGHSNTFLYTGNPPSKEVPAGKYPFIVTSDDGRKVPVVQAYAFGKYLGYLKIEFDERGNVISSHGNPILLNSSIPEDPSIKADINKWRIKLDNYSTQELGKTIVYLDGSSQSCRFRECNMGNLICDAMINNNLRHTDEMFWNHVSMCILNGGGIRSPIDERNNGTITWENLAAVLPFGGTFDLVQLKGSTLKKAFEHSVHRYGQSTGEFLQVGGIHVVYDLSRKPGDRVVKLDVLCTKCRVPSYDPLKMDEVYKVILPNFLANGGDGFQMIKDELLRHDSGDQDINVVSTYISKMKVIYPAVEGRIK

[4] = target: T3, N-hCD73-his (N-terminal domain of human CD73, residues 26-336, His tag) (human, UniProt P21589 26-336); assay: SPR, mAb captured on protein A
T3 sequence: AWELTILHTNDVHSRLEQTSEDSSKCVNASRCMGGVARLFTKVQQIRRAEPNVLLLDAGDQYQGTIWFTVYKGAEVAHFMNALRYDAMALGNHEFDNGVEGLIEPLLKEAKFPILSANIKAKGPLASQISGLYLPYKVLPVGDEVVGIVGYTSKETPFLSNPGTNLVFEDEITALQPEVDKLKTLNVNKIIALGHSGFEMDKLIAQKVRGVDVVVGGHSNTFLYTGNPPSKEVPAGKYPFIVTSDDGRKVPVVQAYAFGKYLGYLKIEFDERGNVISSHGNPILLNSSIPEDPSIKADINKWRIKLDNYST

[5] = target: T1, human CD73 on cells; assay: binding titration on Calu6 cells, average of 2-6 experiments

B1: CD73.10-IgG2-C219S-IgG1.1f (antibody)
heavy: QVQLVESGGGVVQPGRSLRLSCAASGFTFSNYGMHWVRQAPGKGLEWVAVIWYDESNKYYPDSVKGRFTISRDNSKNTLYLQMNSLRAEDTAVYYCARGGSSWYPDSFDIWGQGTMVTVSSASTKGPSVFPLAPCSRSTSESTAALGCLVKDYFPEPVTVSWNSGALTSGVHTFPAVLQSSGLYSLSSVVTVPSSNFGTQTYTCNVDHKPSNTKVDKTVERKSCVECPPCPAPPVAGPSVFLFPPKPKDTLMISRTPEVTCVVVDVSHEDPEVKFNWYVDGVEVHNAKTKPREEQYNSTYRVVSVLTVLHQDWLNGKEYKCKVSNKALPSSIEKTISKAKGQPREPQVYTLPPSREEMTKNQVSLTCLVKGFYPSDIAVEWESNGQPENNYKTTPPVLDSDGSFFLYSKLTVDKSRWQQGNVFSCSVMHEALHNHYTQKSLSLSPG
light: not shown
notes: also called CD73.10-IgG2CS-IgG1.1f; CD73.10-IgG2S-IgG1.1f
EC50 Calu6 inhibition [1]: 0.77 nM | EC50 (nM), high-content internalization assay, Calu6, 2 h [2]: 0.87 nM | Ymax, high-content internalization assay (percent of 100 nM 11F11) [2]: 99% | EC50 (nM), inhibition of bead-bound human CD73 enzymatic activity [3]: 4.84 nM | Kd [4]: 5.7 nM and 6.8 nM | koff [4]: 0.0016 s⁻¹ and 0.0014 s⁻¹ | kon [4]: 230000 M⁻¹ s⁻¹ and 240000 M⁻¹ s⁻¹ | EC50 [5]: 0.85 nM

B2: CD73.10-IgG2-C219S (antibody)
heavy: QVQLVESGGGVVQPGRSLRLSCAASGFTFSNYGMHWVRQAPGKGLEWVAVIWYDESNKYYPDSVKGRFTISRDNSKNTLYLQMNSLRAEDTAVYYCARGGSSWYPDSFDIWGQGTMVTVSSASTKGPSVFPLAPCSRSTSESTAALGCLVKDYFPEPVTVSWNSGALTSGVHTFPAVLQSSGLYSLSSVVTVPSSNFGTQTYTCNVDHKPSNTKVDKTVERKSCVECPPCPAPPVAGPSVFLFPPKPKDTLMISRTPEVTCVVVDVSHEDPEVQFNWYVDGVEVHNAKTKPREEQFNSTFRVVSVLTVVHQDWLNGKEYKCKVSNKGLPAPIEKTISKTKGQPREPQVYTLPPSREEMTKNQVSLTCLVKGFYPSDIAVEWESNGQPENNYKTTPPMLDSDGSFFLYSKLTVDKSRWQQGNVFSCSVMHEALHNHYTQKSLSLSPG
light: not shown
notes: also called CD73.10-IgG2CS; CD73.10-IgG2S
EC50 Calu6 inhibition [1]: 0.84 nM | EC50 (nM), high-content internalization assay, Calu6, 2 h [2]: 0.67 nM | Ymax, high-content internalization assay (percent of 100 nM 11F11) [2]: 99% | EC50 (nM), inhibition of bead-bound human CD73 enzymatic activity [3]: 7.54 nM | Kd [4]: 6.2 nM and 8.3 nM | koff [4]: 0.0014 s⁻¹ and 0.0018 s⁻¹ | kon [4]: 220000 M⁻¹ s⁻¹ | EC50 [5]: 0.85 nM
